Among the data in the Human Domainome abundance scans (Beltran et al. 2025) are abundance fitness values, retold here.

± gives the uncertainty stated by the source.

B1: KAT8 regulatory NSL complex subunit 2, residues 28 to 91; numbered along this chain, Q9H9L4 (parent)
chain: CAFTHRPCSHPRLEGQEFCIKHILEDKNAPFKQCSYISTKNGKRCPNAAPKPEKKDGVSFCAEH

Variants of B1 are the subject of this series. Kind of series: abundance fitness (aPCA) (normalised: wild type 0, dead -1); higher = more abundant; growth selection in yeast, the domain comes from the species named. The settings on record: Homo sapiens.
Regarding CAFTHRPCSHPRLEGQEFCIKHILEDKNAPFKQCSYISTKCGKRCPNAAPKPEKKDGVSFCAEH, the abundance fitness is -0.161 ± 0.09.
To CAFTHRPCSHPRLEGQEFCIKHILEDKNAPFKQCSYISTKVGKRCPNAAPKPEKKDGVSFCAEH belongs -0.031 ± 0.05.
Take CAFTHRPCSHPRLEGQEFCNKHILEDKNAPFKQCSYISTKNGKRCPNAAPKPEKKDGVSFCAEH: the abundance fitness was -0.328 ± 0.21.
CAFTHRPCSHPRLEGQEFCQKHILEDKNAPFKQCSYISTKNGKRCPNAAPKPEKKDGVSFCAEH: the abundance fitness is -0.091 ± 0.08.
To CAFTHRPCSHPRLEGQEFCIKHYLEDKNAPFKQCSYISTKNGKRCPNAAPKPEKKDGVSFCAEH belongs -0.296 ± 0.15.
Next, CAFTHRPCSHPRLEGQEFCIKHILEDKNAPFKQCSYISTKNGKRCHNAAPKPEKKDGVSFCAEH: -0.165 ± 0.083.
CAFTHRPCSHPRLEGQEFCIKHILEDKNAPFKQCSYISTKNGKRCKNAAPKPEKKDGVSFCAEH: the abundance fitness was 0.025 ± 0.1.
To CAFTHRPCSHPRLEGQEFCIKHILEDKNAPFKQCSYISTKNGKRCQNAAPKPEKKDGVSFCAEH belongs -0.1 ± 0.1; to CDFTHRPCSHPRLEGQEFCIKHILEDKNAPFKQCSYISTKNGKRCPNAAPKPEKKDGVSFCAEH, -0.388 ± 0.13.
Next, MAFTHRPCSHPRLEGQEFCIKHILEDKNAPFKQCSYISTKNGKRCPNAAPKPEKKDGVSFCAEH: -0.576 ± 0.16.
For CAFTHRKCSHPRLEGQEFCIKHILEDKNAPFKQCSYISTKNGKRCPNAAPKPEKKDGVSFCAEH, the abundance fitness is -0.123 ± 0.073.
As to CAFTHRPCSHPRLEGQEFWIKHILEDKNAPFKQCSYISTKNGKRCPNAAPKPEKKDGVSFCAEH, the abundance fitness is -1.28 ± 0.091.
Next, CAFTHRPCSHPRLEGQEFCIKHILEDKNAPFKQCSYISTKNGKRCPNAAPKPEKKDGVSFCARH: -0.024 ± 0.047.
As to CAFTHRPCSHPRLEGQEFCIKHILEDKNAPFKQCSYISTKNRKRCPNAAPKPEKKDGVSFCAEH, the abundance fitness was -0.038 ± 0.048.
To CAFTHRPCSHPRLEGQEFCIKHILEDKNAPFKQCSYISTKNGKRCPNAAAKPEKKDGVSFCAEH belongs -0.213 ± 0.082; to CAFTHRPCSHPRLEGQEFCIKHILEDKNAPFKQCSYISTKNGKRCPNAAPKPEKKDGVAFCAEH, -0.056 ± 0.11.
Take CAFTHRPCSHPRLEGQEFCIKHILEDKNAPFKQCSYISTKNGKRCPNAAPKPEKKDGVFFCAEH: the abundance fitness was -0.062 ± 0.083.
Consider CAFTHRPCSHPRLEGQEFCIKHILEDKNAPFKQCSYISTKNGKRCPNAAPKPEKKDGVPFCAEH, for which the abundance fitness was -0.141 ± 0.078.
CAFTHRPCSHPRLWGQEFCIKHILEDKNAPFKQCSYISTKNGKRCPNAAPKPEKKDGVSFCAEH: the abundance fitness was -0.396 ± 0.088.
Next, CAFTHRPCSHPRLPGQEFCIKHILEDKNAPFKQCSYISTKNGKRCPNAAPKPEKKDGVSFCAEH: -0.141 ± 0.067.
Next, CAFTHRPCSHPRLFGQEFCIKHILEDKNAPFKQCSYISTKNGKRCPNAAPKPEKKDGVSFCAEH: -0.252 ± 0.19; CAFTHRPCSHPRLEGQEFCIKHILEDKNAPFKQCSYISTKNGKRCPFAAPKPEKKDGVSFCAEH: 0.006 ± 0.086.
Turning to CAFTHRPCSHPRLEGQEFCIKHILEDKNAPFKQCSYISTKNGKRCPDAAPKPEKKDGVSFCAEH, the abundance fitness stood at 0.017 ± 0.066.
With CAFTHRPCSHPRLEGQEFCIKHILEDKVAPFKQCSYISTKNGKRCPNAAPKPEKKDGVSFCAEH, the abundance fitness was -0.121 ± 0.056.
For the variant CAFTHRPCSHPRLEGQEFCIKHILEDKKAPFKQCSYISTKNGKRCPNAAPKPEKKDGVSFCAEH, the abundance fitness was -0.1 ± 0.088.
CAFTHRPCSHPRLEGQEFCIKHILEDKNAPFKQCSYISTKNGKRAPNAAPKPEKKDGVSFCAEH: the abundance fitness was -0.459 ± 0.093.
Next, CAFTHRPCSHPRLEGQEFCIKHILGDKNAPFKQCSYISTKNGKRCPNAAPKPEKKDGVSFCAEH: -0.063 ± 0.064; CAFTHRPCSHPRLEGQEFCIKHILRDKNAPFKQCSYISTKNGKRCPNAAPKPEKKDGVSFCAEH: -0.099 ± 0.053; CAFTHRPCSHPRLEGQKFCIKHILEDKNAPFKQCSYISTKNGKRCPNAAPKPEKKDGVSFCAEH: -0.15 ± 0.068.
To CAFTHRPCSHPRLEGQRFCIKHILEDKNAPFKQCSYISTKNGKRCPNAAPKPEKKDGVSFCAEH belongs -0.216 ± 0.076; to CAFTHRPCSHPRLEGQEFCIKHILEDKNAPVKQCSYISTKNGKRCPNAAPKPEKKDGVSFCAEH, -0.248 ± 0.048; to CAFTHRPCSHPRLEYQEFCIKHILEDKNAPFKQCSYISTKNGKRCPNAAPKPEKKDGVSFCAEH, -0.706 ± 0.3.
Next, CAFTHRPCSHPRVEGQEFCIKHILEDKNAPFKQCSYISTKNGKRCPNAAPKPEKKDGVSFCAEH: -0.127 ± 0.084; CAFTHRPCSHPRMEGQEFCIKHILEDKNAPFKQCSYISTKNGKRCPNAAPKPEKKDGVSFCAEH: -0.048 ± 0.11.
In the case of CAFTHRPCSHPALEGQEFCIKHILEDKNAPFKQCSYISTKNGKRCPNAAPKPEKKDGVSFCAEH, the abundance fitness was -0.055 ± 0.077.
As to CAFTHRPCSHPRLEGQEFCIKHILEQKNAPFKQCSYISTKNGKRCPNAAPKPEKKDGVSFCAEH, the abundance fitness was -0.18 ± 0.071.
To CAFTHRPCSHPRLEGQEFCIKHILEIKNAPFKQCSYISTKNGKRCPNAAPKPEKKDGVSFCAEH belongs -0.072 ± 0.14.
To CAFTHRPCSHPRLEGQEFCIKHILEKKNAPFKQCSYISTKNGKRCPNAAPKPEKKDGVSFCAEH belongs -0.177 ± 0.09.
Next, CAFTHRPCSHPRLEGQEFCIKHILEDKNHPFKQCSYISTKNGKRCPNAAPKPEKKDGVSFCAEH: -0.208 ± 0.11; CAFTHRPCSHPRLEGQEFCIKHILEDKNEPFKQCSYISTKNGKRCPNAAPKPEKKDGVSFCAEH: -0.308 ± 0.083; CAFPHRPCSHPRLEGQEFCIKHILEDKNAPFKQCSYISTKNGKRCPNAAPKPEKKDGVSFCAEH: -0.512 ± 0.083.
On to CAFVHRPCSHPRLEGQEFCIKHILEDKNAPFKQCSYISTKNGKRCPNAAPKPEKKDGVSFCAEH, for which the abundance fitness is -0.468 ± 0.049.
